Experimental findings from patent US7029865 are described below.

Among the targets are hMC-3R (human), P41968; hMC-4R (human), P32245; hMC-5R (human), P33032.
What all share (assay): competition
Common to all, as to details: modification not given

For a further experiment, the target named is T1, rhMC-4R (rhesus monkey).
T1 chain: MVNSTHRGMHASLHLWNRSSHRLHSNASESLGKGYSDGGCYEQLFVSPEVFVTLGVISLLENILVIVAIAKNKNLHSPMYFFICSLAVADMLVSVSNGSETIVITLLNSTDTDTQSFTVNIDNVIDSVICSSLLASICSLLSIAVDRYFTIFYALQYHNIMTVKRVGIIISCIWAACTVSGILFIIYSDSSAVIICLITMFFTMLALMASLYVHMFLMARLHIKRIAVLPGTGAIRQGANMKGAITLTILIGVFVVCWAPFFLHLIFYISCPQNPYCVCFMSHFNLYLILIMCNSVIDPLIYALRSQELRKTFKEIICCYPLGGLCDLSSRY

Chain of hMC-3R (human), P41968 (P41968 whole entry): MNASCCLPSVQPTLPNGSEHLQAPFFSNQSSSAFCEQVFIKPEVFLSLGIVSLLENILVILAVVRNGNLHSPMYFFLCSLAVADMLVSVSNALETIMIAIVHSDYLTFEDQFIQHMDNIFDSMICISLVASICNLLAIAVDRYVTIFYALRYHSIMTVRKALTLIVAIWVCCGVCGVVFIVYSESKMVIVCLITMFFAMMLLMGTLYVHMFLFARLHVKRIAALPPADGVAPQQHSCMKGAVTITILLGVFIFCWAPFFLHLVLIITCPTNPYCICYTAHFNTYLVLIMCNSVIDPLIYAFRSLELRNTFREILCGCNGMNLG
Chain of hMC-5R (human), P33032 (P33032 whole entry): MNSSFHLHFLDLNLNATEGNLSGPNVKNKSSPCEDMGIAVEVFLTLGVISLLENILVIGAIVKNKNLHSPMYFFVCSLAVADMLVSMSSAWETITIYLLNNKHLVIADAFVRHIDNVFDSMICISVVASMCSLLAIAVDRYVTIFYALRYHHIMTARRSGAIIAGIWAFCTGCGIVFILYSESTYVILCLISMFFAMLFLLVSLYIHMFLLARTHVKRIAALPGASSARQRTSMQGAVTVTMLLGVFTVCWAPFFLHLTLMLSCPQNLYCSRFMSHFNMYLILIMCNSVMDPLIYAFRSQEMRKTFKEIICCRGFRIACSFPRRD

Consider SYSMEHFRWGKPV [alpha-MSH, P01189], for which the IC50 with rhMC-4R (rhesus monkey) stood at 27 nM.
Regarding SYSMEHFRWGKPVGKKRRPVKVYPNGAEDESAEAFPLEF [ACTH1-39, P01189], the IC50 with hMC-3R (human), P41968 amounted to 6 nM; in the experiment with hMC-4R (human), P32245 it was 6 nM; with hMC-5R (human), P33032, 0.4 nM; in the experiment with rhMC-4R (rhesus monkey), 1.3 nM.

One may read the IC50 as the concentration that inhibits the measured activity by half. A higher IC50 goes with weaker potency in that assay.
